Test results: paper PMC6712278, “Mouse Gut Microbiome-Encoded β-Glucuronidases Identified Using Metagenome Analysis Guided by Protein Structure” (mSystems, 2019)
Each block holds one molecule with its values, some of them ahead of it.

Columns and labels:
BoGUS L2 = tested on: T1, BoGUS L2; test: p-nitrophenol release, absorbance […] nm, Michaelis-Menten fit; format: biochemical, Bacteroides ovatus; settings: 50 mM HEPES, 50 mM NaCl, pH 6.5, 37°C
T1 construct: gene GUS; GH2, loop 2 class

[1] = tested on: O=C(O)[C@H]1O[C@@H](Oc2ccc([N+](=O)[O-])cc2)[C@H](O)[C@@H](O)[C@@H]1O; test: purified protein; settings: 37°C, at the enzyme's optimal pH (not given)
purified protein = substrate: O=C(O)[C@H]1O[C@@H](Oc2ccc([N+](=O)[O-])cc2)[C@H](O)[C@@H](O)[C@@H]1O; test: purified protein; format: biochemical, Bacteroides uniformis; settings: 37°C, at the enzyme's optimal pH (not given)

Km (BoGUS L2): 930 ± 70 µM
Molecule: O=C(O)[C@H]1O[C@@H](Oc2ccc([N+](=O)[O-])cc2)[C@H](O)[C@@H](O)[C@@H]1O [PNPG, p-nitrophenyl-glucuronide]

Molecule: BfGUS mL1 (Bacteroides fragilis NCTC 9343)
Km [1]: 460 ± 60 µM | kcat [1]: 23 ± 1 s⁻¹

B1: BuGUS L2 (Bacteroides uniformis str. 3978 T3 ii) (protein)
chain: QRQTQTINDSWKFLKGECTAAADSAFDDSKWTSIHLPHTWNTDAYTEKDYYRGTGWYRRQLTLPQGWKEKQIILRLDAAGKSATIYINGKNVGEHAGGYTACSFNITPFLSFDTPNTLAVCVDNARQDIAPISGDFTFFGGIYRDVWLTAVPNQHFNLTNHGSDGLFISTPQVSEEQATLSIRGEVKNDAPEKATLELTHTIYRPDGTLLQTLKKNIQLKAGETYAFSNEATPVLKPELWTPETPRLYRVETTLRNRKTKTLLDQSNHYTAFRWFRFDGDEGFFLNGKPYKLRGICRHQDQKPIGPALTDEMHRRDFLLMKEMGANFIRISHYPQDDALLEMCDKLGMLAWEEIPIIDIVPNTPGYGDNCERNLREMIRQHYNHPSIITWGYMNEILLVTQRKYKTEAELKPVLERTLALANRLERVLKEEDSTRISTMAFHGSNSYNETGLSKITDIVGWNLYQGWYGGDLTGFEKFLAQQHQNHPTHPMIVSEYGAGSDKRLHSLHPRAFDFSIEYQQKYLEHYLPVLEDTPYICGGTHWNFIDFSSALRDESMPRINNKGLVYADRTPKDVYHYYQAAWRKDIPVLHIASRDWTDRAGVQQGNAPVYLPVKIYTNLSEVELFIDGISLGKQKTENYTATFEVPFSNRNPFLFAQGNYQGKTVQDGLRINFTPIPACLDANNLKGLELAVNVGSQCFFTSDESQLTWLPDQPYAAGSWGYIGGKEGTAQTEIQNTADGPLFQTLRNEIEGYRFDAPQGVYEIELLFTDIFRRNAGIAYQLDRNGQQENRESTFGISINGEVVEESLSPCKESGYFRALRKKYYITNDKEYIDIRFHSTSGTCFLNGIKLRNIY
notes: GH2, loop 2 class
Km (purified protein): 520 ± 60 µM | kcat (purified protein): 24 ± 1 s⁻¹
